# Measured values as given in IntAct's records for PubMed 25910212.
# B1: Lipopolysaccharide-induced tumor necrosis factor-alpha factor (Homo sapiens), Q99732 (parent)
# chain: MSVPGPYQAATGPSSAPSAPPSYEETVAVNSYYPTPPAPMPGPTTGLVTGPDGKGMNPPSYYTQPAPIPNNNPITVQTVYVQHPITFLDRPIQMCCPSCNKMIVSQLSYNAGALTWLSCGSLCLLGCIAGCCFIPFCVDALQDVDHYCPNCRALLGTYKRL
# B2: U4/U6 small nuclear ribonucleoprotein Prp31 (Homo sapiens), Q8WWY3 (parent)
# chain: MSLADELLADLEEAAEEEEGGSYGEEEEEPAIEDVQEETQLDLSGDSVKTIAKLWDSKMFAEIMMKIEEYISKQAKASEVMGPVEAAPEYRVIVDANNLTVEIENELNIIHKFIRDKYSKRFPELESLVPNALDYIRTVKELGNSLDKCKNNENLQQILTNATIMVVSVTASTTQGQQLSEEELERLEEACDMALELNASKHRIYEYVESRMSFIAPNLSIIIGASTAAKIMGVAGGLTNLSKMPACNIMLLGAQRKTLSGFSSTSVLPHTGYIYHSDIVQSLPPDLRRKAARLVAAKCTLAARVDSFHESTEGKVGYELKDEIERKFDKWQEPPPVKQVKPLPAPLDGQRKKRGGRRYRKMKERLGLTEIRKQANRMSFGEIEEDAYQEDLGFSLGHLGKSGSGRVRQTQVNEATKARISKTLQRTLQKQSVVYGGKSTIRDRSSGTASSVAFTPLQGLEIVNPQAAEKKVAEANQKYFSSMAEFLKVKGEKSGLMST
# partner: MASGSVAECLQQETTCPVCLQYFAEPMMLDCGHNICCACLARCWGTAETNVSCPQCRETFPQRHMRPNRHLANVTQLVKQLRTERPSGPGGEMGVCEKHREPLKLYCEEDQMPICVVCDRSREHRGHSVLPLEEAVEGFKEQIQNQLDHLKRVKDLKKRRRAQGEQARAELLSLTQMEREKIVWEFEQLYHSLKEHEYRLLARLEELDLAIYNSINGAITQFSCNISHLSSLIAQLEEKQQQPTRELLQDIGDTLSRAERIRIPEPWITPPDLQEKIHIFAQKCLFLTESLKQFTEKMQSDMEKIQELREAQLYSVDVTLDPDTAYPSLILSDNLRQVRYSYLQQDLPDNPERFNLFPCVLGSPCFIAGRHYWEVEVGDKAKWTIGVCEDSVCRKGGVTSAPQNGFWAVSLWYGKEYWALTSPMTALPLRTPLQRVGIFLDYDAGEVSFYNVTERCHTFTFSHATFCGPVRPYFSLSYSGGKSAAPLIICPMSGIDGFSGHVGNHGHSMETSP
# B3: Keratin, type I cytoskeletal 18 (Homo sapiens), P05783 (parent)
# chain: MSFTTRSTFSTNYRSLGSVQAPSYGARPVSSAASVYAGAGGSGSRISVSRSTSFRGGMGSGGLATGIAGGLAGMGGIQNEKETMQSLNDRLASYLDRVRSLETENRRLESKIREHLEKKGPQVRDWSHYFKIIEDLRAQIFANTVDNARIVLQIDNARLAADDFRVKYETELAMRQSVENDIHGLRKVIDDTNITRLQLETEIEALKEELLFMKKNHEEEVKGLQAQIASSGLTVEVDAPKSQDLAKIMADIRAQYDELARKNREELDKYWSQQIEESTTVVTTQSAEVGAAETTLTELRRTVQSLEIDLDSMRNLKASLENSLREVEARYALQMEQLNGILLHLESELAQTRAEGQRQAQEYEALLNIKVKLEAEIATYRRLLEDGEDFNLGDALDSSNSMQTIQKTTTRRIVDGKVVSETNDTKVLRH
# Variants of: B1
# Conditions: with UBQLN1, Q9UMX0-2
# UBQLN1, Q9UMX0-2, sequence (Q9UMX0 other isoform, or with tags, fused parts or gaps): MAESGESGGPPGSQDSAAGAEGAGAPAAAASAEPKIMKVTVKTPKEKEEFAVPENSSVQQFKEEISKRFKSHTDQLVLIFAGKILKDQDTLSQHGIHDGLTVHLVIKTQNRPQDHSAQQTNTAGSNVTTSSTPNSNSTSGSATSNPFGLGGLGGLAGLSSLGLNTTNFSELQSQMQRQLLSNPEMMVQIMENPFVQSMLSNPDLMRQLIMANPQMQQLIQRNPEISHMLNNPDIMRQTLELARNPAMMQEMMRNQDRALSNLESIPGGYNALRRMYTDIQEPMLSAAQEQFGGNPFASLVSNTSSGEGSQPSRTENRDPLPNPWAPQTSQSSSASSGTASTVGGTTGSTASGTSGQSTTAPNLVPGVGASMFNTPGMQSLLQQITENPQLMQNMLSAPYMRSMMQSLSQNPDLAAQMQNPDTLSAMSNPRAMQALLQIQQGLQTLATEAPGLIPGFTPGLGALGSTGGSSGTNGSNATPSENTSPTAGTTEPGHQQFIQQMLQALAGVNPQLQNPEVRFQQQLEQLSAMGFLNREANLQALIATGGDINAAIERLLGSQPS
row,effect of a mutation on the interaction,Variant
1,disrupting interaction strength,G112S
2,with no effect,I92V

# Variants of: B1
# Conditions: with stam2_human STAM2, O75886
row,effect of a mutation on the interaction,Variant
1,disrupting interaction strength,G112S
2,with no effect,I92V

# Variants of: B1
# Conditions: with reep6_human REEP6, Q96HR9
# reep6_human REEP6, Q96HR9, sequence (Q96HR9 whole entry): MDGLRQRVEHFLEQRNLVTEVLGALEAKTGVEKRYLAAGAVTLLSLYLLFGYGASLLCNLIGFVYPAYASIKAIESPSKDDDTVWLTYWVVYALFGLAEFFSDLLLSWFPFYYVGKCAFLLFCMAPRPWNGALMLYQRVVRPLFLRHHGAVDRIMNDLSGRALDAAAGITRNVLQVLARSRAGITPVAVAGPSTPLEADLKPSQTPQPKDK
row,effect of a mutation on the interaction,Variant
1,disrupting interaction strength,G112S
2,with no effect,I92V

# Variants of: B1
# Conditions: with hgs_human HGS
# Target sequence in this assay (O14964 whole entry): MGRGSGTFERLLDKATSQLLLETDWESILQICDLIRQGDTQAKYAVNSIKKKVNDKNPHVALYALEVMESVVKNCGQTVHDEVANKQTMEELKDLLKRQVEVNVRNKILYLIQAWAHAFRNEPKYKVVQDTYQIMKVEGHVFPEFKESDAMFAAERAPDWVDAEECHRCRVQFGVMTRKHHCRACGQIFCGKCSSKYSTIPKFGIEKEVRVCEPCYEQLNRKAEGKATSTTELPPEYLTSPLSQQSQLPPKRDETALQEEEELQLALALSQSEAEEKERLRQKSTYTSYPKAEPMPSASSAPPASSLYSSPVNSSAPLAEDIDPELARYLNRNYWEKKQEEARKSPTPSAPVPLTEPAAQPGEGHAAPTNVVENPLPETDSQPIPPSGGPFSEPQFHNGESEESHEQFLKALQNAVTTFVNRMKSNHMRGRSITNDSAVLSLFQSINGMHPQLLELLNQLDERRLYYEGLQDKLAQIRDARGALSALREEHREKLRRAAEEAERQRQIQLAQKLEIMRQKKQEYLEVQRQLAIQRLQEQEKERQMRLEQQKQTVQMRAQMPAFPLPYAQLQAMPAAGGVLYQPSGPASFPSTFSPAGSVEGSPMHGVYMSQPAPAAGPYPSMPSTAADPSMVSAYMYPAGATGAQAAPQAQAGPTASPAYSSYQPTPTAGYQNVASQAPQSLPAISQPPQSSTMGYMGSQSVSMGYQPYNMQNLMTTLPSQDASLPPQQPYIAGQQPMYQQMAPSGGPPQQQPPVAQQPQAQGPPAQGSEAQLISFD
row,effect of a mutation on the interaction,Variant
1,disrupting interaction strength,G112S
2,with no effect,I92V

# Variants of: B1
# Conditions: with OPTN
row,effect of a mutation on the interaction,Variant
1,disrupting interaction strength,G112S
2,with no effect,I92V

# Variants of: B2
# Conditions: with tri27_human TRIM27, P14373
row,effect of a mutation on the interaction,Variant
1,with no effect,L107V

# Variants of: B3
# Conditions: with goga2_human GOLGA2, Q08379
# goga2_human GOLGA2, Q08379, sequence (Q08379 whole entry): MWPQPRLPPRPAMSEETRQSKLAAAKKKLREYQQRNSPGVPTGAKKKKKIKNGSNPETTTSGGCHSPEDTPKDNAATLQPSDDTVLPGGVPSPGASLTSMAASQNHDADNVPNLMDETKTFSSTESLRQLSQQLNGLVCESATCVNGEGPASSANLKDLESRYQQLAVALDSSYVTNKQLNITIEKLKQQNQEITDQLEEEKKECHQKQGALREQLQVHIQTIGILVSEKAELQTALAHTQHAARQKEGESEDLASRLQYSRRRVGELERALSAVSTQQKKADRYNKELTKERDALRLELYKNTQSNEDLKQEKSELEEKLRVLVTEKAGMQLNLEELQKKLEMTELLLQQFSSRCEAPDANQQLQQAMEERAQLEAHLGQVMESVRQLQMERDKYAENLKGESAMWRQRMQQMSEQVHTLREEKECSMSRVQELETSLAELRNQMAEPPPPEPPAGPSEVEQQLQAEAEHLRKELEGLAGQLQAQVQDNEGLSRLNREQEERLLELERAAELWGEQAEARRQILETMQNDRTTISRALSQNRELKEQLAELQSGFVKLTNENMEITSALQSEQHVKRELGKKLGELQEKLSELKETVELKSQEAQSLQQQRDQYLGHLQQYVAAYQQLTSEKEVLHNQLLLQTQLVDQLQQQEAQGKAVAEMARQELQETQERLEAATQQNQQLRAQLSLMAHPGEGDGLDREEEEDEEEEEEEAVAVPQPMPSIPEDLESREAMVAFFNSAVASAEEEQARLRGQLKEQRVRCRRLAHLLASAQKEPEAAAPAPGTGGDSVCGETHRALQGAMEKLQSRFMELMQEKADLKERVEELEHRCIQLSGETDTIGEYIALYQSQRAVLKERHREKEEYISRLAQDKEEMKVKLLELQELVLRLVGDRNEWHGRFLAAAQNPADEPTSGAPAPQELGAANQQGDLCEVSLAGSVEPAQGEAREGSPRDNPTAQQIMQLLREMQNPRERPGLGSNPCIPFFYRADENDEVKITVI
row,Variant,effect of a mutation on the interaction
1,T103A,disrupting interaction strength
2,H128L,with no effect

# Now from value to variant:
row,effect of a mutation on the interaction,Variant
1,disrupting interaction strength,Q285R
2,disrupting interaction strength,G340R

# Variants of: B3
# Conditions: with hgs_human HGS
# Target sequence in this assay (O14964 whole entry): as the sequence (O14964 whole entry) above
row,Variant,effect of a mutation on the interaction
1,T103A,disrupting interaction strength
2,H128L,with no effect

# More lines, now with the values ahead:
row,effect of a mutation on the interaction,Variant
1,disrupting interaction strength,Q285R
2,disrupting interaction strength,G340R

# Variants of: B3
# Conditions: with syce1_human SYCE1, Q8N0S2
# syce1_human SYCE1, Q8N0S2, sequence (Q8N0S2 whole entry): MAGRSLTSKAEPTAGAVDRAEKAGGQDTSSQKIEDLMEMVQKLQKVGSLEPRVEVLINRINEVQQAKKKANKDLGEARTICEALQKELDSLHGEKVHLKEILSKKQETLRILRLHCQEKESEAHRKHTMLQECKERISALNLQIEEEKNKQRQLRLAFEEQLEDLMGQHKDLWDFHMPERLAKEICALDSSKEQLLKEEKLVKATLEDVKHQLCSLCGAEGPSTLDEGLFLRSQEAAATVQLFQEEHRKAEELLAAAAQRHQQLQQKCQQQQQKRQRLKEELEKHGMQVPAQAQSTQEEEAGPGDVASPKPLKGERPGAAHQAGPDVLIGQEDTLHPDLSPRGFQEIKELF
row,Variant,effect of a mutation on the interaction
1,T103A,disrupting interaction strength
2,H128L,with no effect

# Results, then the variant that gave them:
row,effect of a mutation on the interaction,Variant
1,with no effect,Q285R
2,with no effect,G340R
